# Experimental data: the Immune Epitope Database (IEDB)
# Experiments:
# HLA-B*15:03 = assay: IEDB peptide-MHC binding, purified MHC/competitive/radioactivity; filed as Kd, often an IC50 or EC50 that approximates it; ≥ and ≤ were set here for values at or beyond the usual limits of such assays
# HLA-A*68:02 = assay: as above
# HLA-A*02:02 = assay: as above
# HLA-A*02:03 = assay: as above
# HLA-A*02:01 [1] = assay: as above
# HLA-A*24:03 = assay: IEDB peptide-MHC binding, purified MHC/direct/fluorescence; filed as Kd, often an IC50 or EC50 that approximates it; ≥ and ≤ were set here for values at or beyond the usual limits of such assays; conditions: source organism: Salmonella enterica
# HLA-A*02:06 = assay: IEDB peptide-MHC binding, purified MHC/competitive/radioactivity; filed as Kd, often an IC50 or EC50 that approximates it; ≥ and ≤ were set here for values at or beyond the usual limits of such assays
# HLA-A*26:01 = assay: as above
# HLA-A*03:01 = assay: IEDB peptide-MHC binding, purified MHC/competitive/fluorescence; ≥ and ≤ were set here for values at or beyond the usual limits of such assays
# HLA-A*11:01 = assay: as above
# HLA-A*02:01 [2] = assay: as above
# HLA-B*07:02 = assay: IEDB peptide-MHC binding, purified MHC/competitive/radioactivity; filed as Kd, often an IC50 or EC50 that approximates it; ≥ and ≤ were set here for values at or beyond the usual limits of such assays
# HLA-B*51:01 = assay: as above
# HLA-B*53:01 = assay: as above
# HLA-A*32:01 = assay: as above
# HLA-A*30:01 = assay: as above
# HLA-B*08:01 = assay: as above
# HLA-B*15:01 = assay: as above
# HLA-B*57:01 [3] = assay: as above
# HLA-B*57:01 [4] = assay: IEDB peptide-MHC binding, purified MHC/direct/fluorescence; filed as Kd, often an IC50 or EC50 that approximates it; ≥ and ≤ were set here for values at or beyond the usual limits of such assays; conditions: source organism: Entamoeba histolytica HM-1:IMSS
# HLA-B*58:01 = assay: as above; conditions: source organism: Entamoeba histolytica HM-1:IMSS
# HLA-B*35:01 = assay: IEDB peptide-MHC binding, purified MHC/competitive/radioactivity; filed as Kd, often an IC50 or EC50 that approximates it; ≥ and ≤ were set here for values at or beyond the usual limits of such assays; conditions: source organism: Dengue virus 3 Martinique/1243/1999
# HLA-A*24:02 = assay: IEDB peptide-MHC binding, purified MHC/competitive/fluorescence; ≥ and ≤ were set here for values at or beyond the usual limits of such assays
# HLA-A*31:01 = assay: IEDB peptide-MHC binding, purified MHC/competitive/radioactivity; filed as Kd, often an IC50 or EC50 that approximates it; ≥ and ≤ were set here for values at or beyond the usual limits of such assays; conditions: source organism: Vaccinia virus WR
# HLA-A*68:01 = assay: as above; conditions: source organism: Vaccinia virus WR
# HLA-A*33:01 = assay: as above; conditions: source organism: Vaccinia virus WR
# HLA-A*30:02 = assay: as above; conditions: source organism: Dengue virus 3 Martinique/1243/1999
# [5] = source organism: Vaccinia virus WR
# [6] = source organism: Dengue virus 4 Philippines/H241/1956
# [7] = source organism: Zaire ebolavirus
# [8] = source organism: Dengue virus 1 Brazil/97-11/1997
# [9] = source organism: Lymphocytic choriomeningitis virus (strain Armstrong) (clone 53b)
# [10] = source organism: Vaccinia virus Copenhagen
# [11] = source organism: Sudan ebolavirus
# [12] = source organism: Dengue virus 3 Martinique/1243/1999
# [13] = source organism: Lassa virus GA391
# [14] = source organism: Vaccinia virus
# [15] = source organism: Dengue virus 2 Jamaica/1409/1983
# [16] = source organism: Trypanosoma cruzi
# [17] = source organism: Dengue virus 2 Peru/IQT2913/1996
# [18] = source organism: Human immunodeficiency virus type 1 (CLONE 12)
sequence,measurement,setting,value
RKVKSYNYM,Kd,HLA-B*15:03; [5],0.00258 µM
VLQRNCAAYL,Kd,HLA-A*68:02; source organism: Homo sapiens,≥ 60 µM
same,Kd,HLA-A*02:02; source organism: Homo sapiens,0.018 µM
same,Kd,HLA-A*02:03; source organism: Homo sapiens,0.0948 µM
same,Kd,HLA-A*02:01 [1]; source organism: Homo sapiens,0.0957 µM
HHQINYHGF,Kd,HLA-A*24:03,0.965 µM
TTANWLWAL,Kd,HLA-A*68:02; [6],0.00636 µM
same,Kd,HLA-A*02:06; [6],0.00593 µM
same,Kd,HLA-A*26:01; [6],3.08 µM
ITGGRRTRR,IC50,HLA-A*03:01; [7],6.85 µM
same,IC50,HLA-A*11:01; [7],9.09 µM
same,IC50,HLA-A*02:01 [2]; [7],≥ 177 µM
VPSIKSGNDI,Kd,HLA-B*07:02; [8],1.37 µM
same,Kd,HLA-B*51:01; [8],≥ 22 µM
same,Kd,HLA-B*53:01; [8],≥ 47.6 µM
MLMFIFTGI,Kd,HLA-A*32:01; [5],1.45 µM
same,Kd,HLA-A*30:01; [5],0.281 µM
same,Kd,HLA-B*08:01; [5],0.265 µM
same,Kd,HLA-B*15:01; [5],1.41 µM
same,Kd,HLA-B*15:03; [5],1.01 µM
IVYSLVTTI,Kd,HLA-A*32:01; [5],0.0036 µM
same,Kd,HLA-A*30:01; [5],0.016 µM
same,Kd,HLA-B*08:01; [5],13.6 µM
same,Kd,HLA-B*15:01; [5],0.542 µM
same,Kd,HLA-B*15:03; [5],1.86 µM
GIYIEGLMH,IC50,HLA-A*03:01; [7],16.1 µM
same,IC50,HLA-A*11:01; [7],9.23 µM
same,IC50,HLA-A*02:01 [2]; [7],≥ 180 µM
IGIGILLTW,Kd,HLA-B*57:01 [3]; [8],0.272 µM
same,Kd,HLA-B*53:01; [8],5.45 µM
ALPHIIDEV,Kd,HLA-A*68:02; [9],0.179 µM
same,Kd,HLA-A*02:02; [9],0.013 µM
same,Kd,HLA-A*02:03; [9],0.00034 µM
same,Kd,HLA-A*02:06; [9],0.066 µM
IQYDRRSFF,Kd,HLA-B*15:03; [10],0.000154 µM
ASLTPKAQR,IC50,HLA-A*03:01; source organism: Variola virus,2.32 µM
same,IC50,HLA-A*11:01; source organism: Variola virus,0.29 µM
TAYEKLWYI,Kd,HLA-B*57:01 [4],0.65 µM
same,Kd,HLA-B*58:01,0.13 µM
AEMMAPSMF,Kd,HLA-B*15:03; [5],0.0172 µM
RISDRATRK,IC50,HLA-A*03:01; [11],1.86 µM
same,IC50,HLA-A*11:01; [11],0.651 µM
MAVGLVSILA,Kd,HLA-A*68:02; [12],0.00323 µM
KLLEGEESRI,Kd,HLA-A*68:02; source organism: Homo sapiens,≥ 60 µM
TSVGKLVHQV,Kd,HLA-A*68:02; [8],0.0371 µM
FPYSIPATLL,Kd,HLA-B*35:01,0.131 µM
same,Kd,HLA-B*07:02; [12],0.028 µM
same,Kd,HLA-B*51:01; [12],0.325 µM
same,Kd,HLA-B*53:01; [12],0.00997 µM
DQEKKILMN,IC50,HLA-A*03:01; [7],≥ 386 µM
same,IC50,HLA-A*24:02; [7],≥ 303 µM
same,IC50,HLA-A*11:01; [7],≥ 193 µM
KSISKSNAK,IC50,HLA-A*03:01; [10],3.02 µM
same,IC50,HLA-A*11:01; [10],1.68 µM
same,Kd,HLA-A*31:01,0.000454 µM
same,Kd,HLA-A*68:01,0.101 µM
same,Kd,HLA-A*33:01,≥ 33.9 µM
ILAADLEKL,Kd,HLA-A*68:02; [13],4.29 µM
same,Kd,HLA-A*02:02; [13],0.0323 µM
same,Kd,HLA-A*02:03; [13],0.02 µM
same,Kd,HLA-A*02:06; [13],0.195 µM
YAFSKYMSF,Kd,HLA-B*15:01; [5],0.00899 µM
same,Kd,HLA-B*15:03; [5],0.00177 µM
RKISSKNSM,Kd,HLA-B*15:03; [5],0.000114 µM
LRYLLFGIK,IC50,HLA-A*03:01; [14],15.4 µM
same,IC50,HLA-A*24:02; [14],13.6 µM
same,IC50,HLA-A*11:01; [14],≥ 128 µM
same,IC50,HLA-A*02:01 [2]; [14],≥ 825 µM
LGFLNEDHW,Kd,HLA-B*57:01 [3]; source organism: Murray valley encephalitis virus (strain MVE-1-51),0.172 µM
IQTMDGQEL,Kd,HLA-B*15:03; [5],0.144 µM
ELDSNLYRI,Kd,HLA-A*68:02; source organism: Homo sapiens,0.916 µM
ESHNQTFLI,Kd,HLA-A*68:02; [15],0.00351 µM
SLSHDFTLV,Kd,HLA-A*68:02; [16],0.6 µM
same,Kd,HLA-A*02:02; [16],0.000305 µM
same,Kd,HLA-A*02:03; [16],0.00165 µM
same,Kd,HLA-A*02:06; [16],0.00774 µM
same,Kd,HLA-A*02:01 [1]; [16],0.0126 µM
LLGLWGFAAQ,Kd,HLA-A*68:02; [16],1.82 µM
same,Kd,HLA-A*02:02; [16],1.24 µM
same,Kd,HLA-A*02:03; [16],0.394 µM
same,Kd,HLA-A*02:06; [16],0.462 µM
same,Kd,HLA-A*02:01 [1]; [16],1.1 µM
LTSRDGEPRM,Kd,HLA-A*30:01; [12],10.9 µM
same,Kd,HLA-B*57:01 [3]; [12],1.32 µM
IKGTSGTEK,IC50,HLA-A*03:01; [14],≥ 187 µM
ISTYPGNTF,Kd,HLA-B*15:03; [5],0.000479 µM
IPTVMAFHL,Kd,HLA-B*07:02; [17],0.596 µM
same,Kd,HLA-B*51:01; [17],5.51 µM
same,Kd,HLA-B*53:01; [17],0.0489 µM
ILMGLDKGW,Kd,HLA-B*57:01 [3]; [8],0.049 µM
IKVLVEHGF,Kd,HLA-A*32:01; [5],11.3 µM
same,Kd,HLA-A*30:01; [5],5.93 µM
same,Kd,HLA-B*08:01; [5],≥ 77.7 µM
same,Kd,HLA-B*15:01; [5],9.69 µM
same,Kd,HLA-B*15:03; [5],0.473 µM
RLHSNTILK,Kd,HLA-A*32:01; [5],6.35 µM
same,Kd,HLA-A*30:01; [5],0.0485 µM
same,Kd,HLA-B*08:01; [5],≥ 38.6 µM
same,Kd,HLA-B*15:01; [5],2.22 µM
same,Kd,HLA-B*15:03; [5],8.54 µM
GTAKLRWFV,Kd,HLA-A*68:02; [8],0.0307 µM
ETPNLAERV,Kd,HLA-A*68:02; source organism: Dengue virus 1 Singapore/S275/1990,0.0248 µM
SLNSIFNTF,Kd,HLA-A*32:01; [10],0.0138 µM
same,Kd,HLA-B*08:01; [10],≥ 30.6 µM
same,Kd,HLA-B*15:01; [10],0.00222 µM
same,Kd,HLA-B*15:03; [10],0.209 µM
GKRSNTTGK,IC50,HLA-A*03:01; [7],52.6 µM
same,IC50,HLA-A*02:01 [2]; [7],≥ 14300 µM
VRKNFTSSF,Kd,HLA-B*15:03; [5],0.192 µM
TTIAVSMANI,Kd,HLA-A*68:02; [15],0.00387 µM
same,Kd,HLA-A*26:01; [15],3.51 µM
HSFEEMYRH,IC50,HLA-A*03:01; [7],49.4 µM
same,IC50,HLA-A*11:01; [7],3.29 µM
PLTFGWCYKL,Kd,HLA-A*68:02; [18],≥ 20.1 µM
same,Kd,HLA-A*02:02; [18],≥ 29.4 µM
same,Kd,HLA-A*02:03; [18],19.3 µM
same,Kd,HLA-A*02:06; [18],13.2 µM
same,Kd,HLA-A*02:01 [1]; [18],6.85 µM
IAIGIITLY,Kd,HLA-B*57:01 [3]; [12],0.00362 µM
same,Kd,HLA-A*26:01; [12],0.013 µM
same,Kd,HLA-A*30:02,2.68 µM
ETILELTDAL,Kd,HLA-A*68:02; [15],0.134 µM
same,Kd,HLA-A*26:01; [15],0.277 µM
LKSNADWFF,Kd,HLA-B*15:03; [10],0.0102 µM
STHKLSLTK,IC50,HLA-A*03:01; source organism: Variola virus,2.93 µM
same,IC50,HLA-A*11:01; source organism: Variola virus,0.193 µM
same,IC50,HLA-A*02:01 [2]; source organism: Variola virus,≥ 255 µM
RAYMATTIL,Kd,HLA-B*15:03; [5],0.0175 µM
FSPGTSGSPI,Kd,HLA-A*68:02; [15],0.294 µM
same,Kd,HLA-B*51:01; [15],12.8 µM
FTQQALSSF,Kd,HLA-B*15:03; [5],0.00643 µM
